In patent US20150004174A1 (Amgen, published 2015):

Key:
[1] = molecular target: T1, mouse PCSK9, 8xHis tagged (mouse, UniProt Q80W65 35-694); test: KinExA solution equilibrium
T1 construct: The biotinylated mouse PCSK9 of the hybridoma cross-reactivity screen is entered under this molecule; also called mPCSK9-8xHIS; mPCSK9; not shown: 8xHis tag named only in the label

[2] = molecular target: human PCSK9 (proprotein convertase subtilisin kexin type 9), wild type (human, UniProt Q8NBP7 31-692, biotinylated in the ELISA formats (site not stated)); test: cell-based or functional assay
[3] = molecular target: human PCSK9 D374Y mutant (human, UniProt Q8NBP7 31-692, biotinylated in the ELISA formats (site not stated)); test: cell-based or functional assay

T1 sequence (Q80W65 35-694): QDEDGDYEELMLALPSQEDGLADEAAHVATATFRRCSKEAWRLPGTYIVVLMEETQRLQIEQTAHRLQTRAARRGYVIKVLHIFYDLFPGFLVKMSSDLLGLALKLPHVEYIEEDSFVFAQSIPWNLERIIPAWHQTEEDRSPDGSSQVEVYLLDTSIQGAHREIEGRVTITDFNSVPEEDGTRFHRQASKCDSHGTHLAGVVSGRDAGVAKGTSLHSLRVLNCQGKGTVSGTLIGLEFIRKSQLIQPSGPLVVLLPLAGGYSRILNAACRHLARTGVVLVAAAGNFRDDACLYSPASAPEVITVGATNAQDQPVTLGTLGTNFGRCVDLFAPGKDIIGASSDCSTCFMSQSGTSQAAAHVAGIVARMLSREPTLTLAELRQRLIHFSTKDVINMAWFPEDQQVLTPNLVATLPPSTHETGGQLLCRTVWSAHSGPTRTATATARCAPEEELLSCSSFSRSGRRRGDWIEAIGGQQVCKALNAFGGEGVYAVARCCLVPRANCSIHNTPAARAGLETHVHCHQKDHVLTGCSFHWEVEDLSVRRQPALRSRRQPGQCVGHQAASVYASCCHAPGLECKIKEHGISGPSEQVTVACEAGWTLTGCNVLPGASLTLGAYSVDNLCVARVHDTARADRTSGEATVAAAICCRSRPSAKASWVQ

B1: 16F12 human IgG4 (antibody, V domains shown)
VH: QVHLVESGGGVVQPGRSLRLSCAASGFTFNSFGMHWVRQAPGKGLEWVALIWSDGSDEYYADSVKGRFTISRDNSKNTLYLQMNSLRAEDTAVYYCARAIAALYYYYGMDVWGQGTTVTVSS
VL: QSVLTQPPSVSAAPGQKVTISCSGSSSNIGNNFVSWYQQLPGTAPKLLIYDYNKRPSGIPDRFSGSKSGTSATLGITGLQTGDEADYYCGTWDSSLSAYVFGTGTRVTVLQ
notes: also called 16F12.1; 16F12, anti-PCSK9 huIgG4
fold lower affinity to mouse PCSK9 than to human and cyno PCSK9 [1]: 10 to 250 fold

B2: 11F1 anti-PCSK9 antibody (antibody, V domains shown)
VH: EVQLVESGGGLVQPGGSLRLSCAASGFTFSNYWMSWVRQAPGKGLEWVASIKQDGSEKYYVDSVKGRFAISRDNAKNSLFLQMNSLRAEDTAVYYCARDLVLMVYDIDYYYYGMDVWGQGTTVTVSS
VL: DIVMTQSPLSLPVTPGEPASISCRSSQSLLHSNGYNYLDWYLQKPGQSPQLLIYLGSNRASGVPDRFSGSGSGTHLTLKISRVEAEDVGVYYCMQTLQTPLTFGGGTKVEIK
EC50, block of PCSK9-mediated decrease of BODIPY-LDL uptake in HepG2 cells [2]: 124 nM | EC50, block of PCSK9-mediated decrease of BODIPY-LDL uptake in HepG2 cells [3]: 35.3 nM
